Experimental data published in paper PMC6200776.

Experiments:
[1] = molecular target: NanoLuc-VEGFR2 (UniProt P35968)
[2] = molecular target: VEGF165b-TMR; experiment: fluorescence SDS-PAGE with and without DTT; purified VEGF-TMR isoforms in the presence or absence of 100 mM DTT; dimer in non-reducing conditions
[3] = molecular target: NanoLuc-VEGFR2 (UniProt P35968); experiment: FRET or BRET; NanoBRET kinetics: live HEK293T cells with NanoLuc receptor, furimazine 5 min before 1-20 nM fluorescent VEGF, read every 30 s at 37°C; global fit of five concentrations; KD as koff/kon
[4] = molecular target: NanoLuc-VEGFR2 (UniProt P35968); experiment: FRET or BRET; NanoBRET saturation: live HEK293T cells stably expressing the N-terminal NanoLuc receptor; increasing fluorescent VEGF with or without 100 nM unlabelled VEGF; 60 min, 37°C, HBSS/0.1% BSA
[5] = molecular target: NanoLuc-NRP1 (UniProt O14786); experiment: FRET or BRET; NanoBRET kinetics: live HEK293T cells with NanoLuc receptor, furimazine 5 min before 1-20 nM fluorescent VEGF, read every 30 s at 37°C; global fit of five concentrations; KD as koff/kon
Chain of UniProt O14786 (O14786 22-923): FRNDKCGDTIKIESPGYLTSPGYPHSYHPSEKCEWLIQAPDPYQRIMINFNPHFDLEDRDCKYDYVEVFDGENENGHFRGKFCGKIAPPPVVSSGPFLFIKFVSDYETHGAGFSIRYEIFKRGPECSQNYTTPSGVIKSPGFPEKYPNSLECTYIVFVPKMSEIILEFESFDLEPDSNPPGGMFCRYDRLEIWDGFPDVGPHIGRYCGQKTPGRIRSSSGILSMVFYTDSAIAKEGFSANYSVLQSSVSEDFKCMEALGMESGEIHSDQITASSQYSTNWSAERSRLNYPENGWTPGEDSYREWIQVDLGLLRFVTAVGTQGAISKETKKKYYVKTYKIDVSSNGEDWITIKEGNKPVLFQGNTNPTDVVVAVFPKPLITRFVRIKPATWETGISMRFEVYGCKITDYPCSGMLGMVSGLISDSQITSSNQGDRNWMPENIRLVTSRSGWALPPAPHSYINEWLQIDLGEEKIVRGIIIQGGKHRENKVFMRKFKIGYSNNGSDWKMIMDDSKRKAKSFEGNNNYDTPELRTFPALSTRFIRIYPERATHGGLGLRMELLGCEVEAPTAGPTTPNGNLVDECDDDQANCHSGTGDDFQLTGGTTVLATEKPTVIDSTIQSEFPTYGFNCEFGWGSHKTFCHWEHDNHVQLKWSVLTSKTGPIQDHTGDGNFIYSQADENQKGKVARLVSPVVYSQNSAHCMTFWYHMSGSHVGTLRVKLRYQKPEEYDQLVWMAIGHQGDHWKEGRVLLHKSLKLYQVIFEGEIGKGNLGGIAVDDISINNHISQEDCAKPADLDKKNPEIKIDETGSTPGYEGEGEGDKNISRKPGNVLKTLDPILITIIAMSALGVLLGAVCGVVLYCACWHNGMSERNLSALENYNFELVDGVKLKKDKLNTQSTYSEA

[6] = molecular target: NanoLuc-NRP1 (UniProt O14786); experiment: FRET or BRET; NanoBRET full displacement: live HEK293T cells with NanoLuc receptor; increasing unlabelled VEGF (R&D Systems) added together with five fixed concentrations of fluorescent VEGF; 60 min, 37°C, HBSS/0.1% BSA
[7] = molecular target: NanoLuc-NRP1 (UniProt O14786); experiment: FRET or BRET; NanoBRET saturation: live HEK293T cells stably expressing the N-terminal NanoLuc receptor; increasing fluorescent VEGF with or without 100 nM unlabelled VEGF; 60 min, 37°C, HBSS/0.1% BSA
[8] = molecular target: VEGF121a-TMR; experiment: fluorescence SDS-PAGE with and without DTT; purified VEGF-TMR isoforms in the presence or absence of 100 mM DTT; dimer in non-reducing conditions

Chain of UniProt P35968 (P35968 20-1356): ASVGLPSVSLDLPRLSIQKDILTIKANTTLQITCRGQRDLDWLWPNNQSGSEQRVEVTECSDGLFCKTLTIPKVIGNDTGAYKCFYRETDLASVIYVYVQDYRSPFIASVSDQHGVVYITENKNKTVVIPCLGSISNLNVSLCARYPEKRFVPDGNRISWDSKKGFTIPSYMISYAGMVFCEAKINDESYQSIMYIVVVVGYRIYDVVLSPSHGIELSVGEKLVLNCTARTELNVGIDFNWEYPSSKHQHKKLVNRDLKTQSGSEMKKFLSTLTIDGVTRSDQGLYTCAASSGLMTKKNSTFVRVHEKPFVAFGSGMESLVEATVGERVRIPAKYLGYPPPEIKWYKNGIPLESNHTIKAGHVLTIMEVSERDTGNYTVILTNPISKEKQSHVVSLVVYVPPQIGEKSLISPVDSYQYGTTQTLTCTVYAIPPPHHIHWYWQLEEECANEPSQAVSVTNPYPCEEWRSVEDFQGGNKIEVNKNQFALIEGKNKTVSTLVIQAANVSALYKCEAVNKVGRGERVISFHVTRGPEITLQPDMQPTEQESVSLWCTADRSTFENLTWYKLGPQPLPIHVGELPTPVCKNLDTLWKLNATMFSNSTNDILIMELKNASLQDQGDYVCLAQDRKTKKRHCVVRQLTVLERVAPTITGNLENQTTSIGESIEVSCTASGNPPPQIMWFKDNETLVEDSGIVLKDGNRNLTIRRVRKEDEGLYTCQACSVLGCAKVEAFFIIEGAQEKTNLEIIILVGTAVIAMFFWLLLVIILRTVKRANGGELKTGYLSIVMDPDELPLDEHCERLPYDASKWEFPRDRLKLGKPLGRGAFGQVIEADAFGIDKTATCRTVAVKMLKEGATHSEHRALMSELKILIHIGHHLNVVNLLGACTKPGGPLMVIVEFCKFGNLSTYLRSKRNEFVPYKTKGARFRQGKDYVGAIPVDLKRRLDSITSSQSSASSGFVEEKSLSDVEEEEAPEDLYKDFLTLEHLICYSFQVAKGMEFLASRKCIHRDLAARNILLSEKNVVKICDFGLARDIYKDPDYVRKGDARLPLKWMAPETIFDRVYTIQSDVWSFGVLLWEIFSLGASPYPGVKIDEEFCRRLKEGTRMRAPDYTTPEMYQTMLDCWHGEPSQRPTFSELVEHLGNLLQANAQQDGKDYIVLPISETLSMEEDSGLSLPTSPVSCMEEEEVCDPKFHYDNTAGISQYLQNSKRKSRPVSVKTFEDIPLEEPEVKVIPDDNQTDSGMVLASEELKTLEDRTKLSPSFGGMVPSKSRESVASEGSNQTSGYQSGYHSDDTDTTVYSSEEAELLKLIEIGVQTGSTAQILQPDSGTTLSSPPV

Kd [3] [nM]	koff [3] [s⁻¹]	kon [3] [M⁻¹ s⁻¹]	Kd [4] [nM]	Kd [5] [nM]	koff [5] [s⁻¹]	kon [5] [M⁻¹ s⁻¹]	Kd [6] [nM]	Kd [7] [nM]	stoichiometry N [8]	Ki [6] [nM]	pKi [6]	Substance	pEC50 of the NFAT reporter gene response, as told again in the discussion with another number [1]	stoichiometry N [2]
6.64	0.001	257000	2.03	4.95	0.00433	1.18e+06	1.11	4.41	–	–	–	VEGF165a-TMR (ligand)	–	–
5.75	0.000833	142000	5.54	–	–	–	–	–	2	–	–	VEGF121a-TMR (ligand)	–	–
–	–	–	–	–	–	–	–	–	–	0.1	9.54	VEGF165a (ligand)	–	–

Substance	Kd [3] [nM]	koff [3] [s⁻¹]	kon [3] [M⁻¹ s⁻¹]	Kd [4] [nM]	Kd [5] [nM]	koff [5] [s⁻¹]	kon [5] [M⁻¹ s⁻¹]	Kd [6] [nM]	Kd [7] [nM]	stoichiometry N [8]	Ki [6] [nM]	pKi [6]	pEC50 of the NFAT reporter gene response, as told again in the discussion with another number [1]	stoichiometry N [2]
VEGF165b-TMR (ligand)	11.3	0.001	122000	9.53	–	–	–	–	–	–	–	–	8.28	2
